Results taken from article PMC11066036.

B1: HPK1 kinase domain (KD TSEE WT) [not stated] / HPK1 intact citron homology domain fragment (C428-E821), untagged [not stated] (parent)
chain 1: CASGPPPNSPRPGPPPSTSSPHLTAHSEPSLWNPPSRELDKPPLLPPKKEKMKRKGCALLVKLFNGCPLRIHSTAAWTHPSTKDQHLLLGAEEGIFILNRNDQEATLEMLFPSRTTWVYSINNVLMSLSGKTPHLYSHSILGLLERKETRAGNPIAHISPHRLLARKNMVSTKIQDTKGCRACCVAEGASSGGPFLCGALETSVVLLQWYQPMNKFLLVRQVLFPLPTPLSVFALLTGPGSELPAVCIGVSPGRPGKSVLFHTVRFGALSCWLGEMSTEHRGPVQVTQVEEDMVMVLMDGSVKLVTPEGSPVRGLRTPEIPMTEAVEAVAMVGGQLQAFWKHGVQVWALGSDQLLQELRDPTLTFRLLGSPRPVVVETRPVDDPTAPSNLYIQE
chain 2: DVVDPDIFNRDPRDHYDLLQRLGGGTYGEVFKARDKVSGDLVALKMVKMEPDDDVSTLQKEILILKTCRHANIVAYHGSYLWLQKLWICMEFCGAGSLQDIYQVTGSLSELQISYVCREVLQGLAYLHSQKKIHRDIKGANILINDAGEVRLADFGISAQIGAELARRLEFIGTPYWMAPEVAAVALKGGYNELCDIWSLGITAIELAELQPPLFDVHPLRVLFLMTKSGYQPPRLKEKGKWSAAFHNFIKVTLTKSPKKRPSATKMLSHQLVSQPGLNRGLILDLLDKLKN

Variants of: B1
Assay: SPR
Details: with HPK1 intact citron homology domain fragment (C428-E821), left plot, plateau of the last (highest) of five successive CHD injections, about 800-900 s, CHD concentrations not given, parent: 30, read off a plot
chain 2 DVVDPDIFNRDPRDHYDLLQRLGGGTYGEVFKARDKVSGDLVALKMVKMEPDDDVSTLQKEILILKTCRHANIVAYHGSYLWLQKLWICMEFCGAGSLQDIYQVTGSLSELQISYVCREVLQGLAYLHSQKKIHRDIKGANILINDAGEVRLADFGISAQIGAELARRLEFIGTPYWMAPEVAAVALKGGYNELCDIWSLGITAIELAELQPPLFDVHPKRVLFLMTKSGYQPPRLKEKGKWSAAFHNFIKVTLTKSPKKRPSATKMLSHQLVSQPGLNRGLILDLLDKLKN [chain 2 L220K] showed a response (Response Units) of 43.
